Experiment: soluble on expression in E. coli; label from the status in PepcDB or PDB records

Sequence	soluble on expression in E. coli
MIVDSISSSTASTSSSSPTRGTPIRKSLQCAVCGDVALGKHYGVNACNGCKGFFRRSIWKNRTYACRHGGKCLVAKEQRNACRSCRLTRCLDVGMNPRAVQGDTVEDPEWDEEAMPETLSISTQTDALKVKKKSHTSLFTLDIKKEQIIDNLRAIYARTDPEEFWKLTYPGTYDFRYAFHNTKVVSPRTPLTPTAERIATLNDVVADFRRAFVLFVDILKSIDQLRDVQEDDKMKIAKSRFAAFYWWLCSTWSAKAGCNGVCYSNGSYHPASISDMPKSEGKHGVRIDYSGVSQKSLENLVEPLRRMELSDEERIVGAVMVILADPVPNVSTKTEKILAEARDFYLELLGYCIKLPEEQQGIRVSTMVLLLASIMELVHLTTDNIQLSDVLHVIDLGDWSQELRDHRYRRQF	not soluble
MIVLIDGPSGSGKTTFAGFLGEILGMRIVHFDDLYPGWHGLAAGVKIVTALLEGAGGYHRWDWANNVMGPWVEVPERNLIIEGVGSLAPSVVRAARQHGPVLTMLFDGPEQMRRSRALARDPFYEPWWEMWAEQEARHFATVETPDVTRGYP	not soluble
MIVMTQVRLSELVAPSFYEIHNDIKHNRYTHYWLKGGRGSTKSSFVSIEIILGVMKDPNANAVALRKVKETIKDSVFEQLVWAIEKLKVTEYWEIKHNPMELTYLPTGQKILFRGADKPRKIKSIKVSRGYVKFIWYEEVDEFLGMEEIRIINQSLMRGGEQFVVFYTYNPPNRVNAWVNEEILIDRPDRKVHHSTYLTVPRDWLGEQFFIEAEHLKKVNEKAYRHEYLGEVTGTGGEVFTNVKARKINDEEIKAFDRIKRGLDFGYAVDPAAYIVCHFDKTRRRLYIFHEIFQVGLSNRKLAELIKKENKSNKLVVADSAEPKSIAELRGYGINIRGAKKGPDSVEYGIKFLQDLEEIIIDPERCPNTLREFVNYELEKDKDGNFKAEFPDKNNHTIDAVRYALEDDMRTGGLSILK	soluble
MIVNAFYNEKGVGDTLLIETGEVTFENREWERRGDVARIFDRETKQVAGFNIFNSSKYFDITANGKVDLTEELVALMNQVIEKAGFEPEIVADLTPKFVVGYVESKEKHPNADKLNVCQINVGGEVLQIVCGAPNIDAGQKVVVAKIGAVMPSGLIIKPSNLRGEDSFGMVCAARELAIPNAPTEKGILVLEDSATPGEEFPVNFLEHHHHHH	not soluble
MIYIGLPQWSHPKWVRLGITSLEEYARHFNCVEGNTTLYALPKPEVVLRWREQTTDDFRFCFKFPATISHQAALRHCDDLVTEFLTRMSPLAPRIGQYWLQLPATFGPRELPALWHFLDSLPGEFNYGVEVRHPQFFAKGEEEQTLNRGLHQRGVNQVILDSRPVHAARPHSEAIRDAQRKKPKVPVHAVLTATNPLIRFIGSDDMTQNRELFQVWLQKLAQWHQTTTPYLFLHTPDIAQAPELVHTLWEDLRKTLPEIGAVPAIPQQSSLF	soluble
MIYKNRLLKTIRYNVKATTISPLAIRDDEDNLKIDQLTGKVYIPGSSVAGAFRNYYENYIDKNSNENFNELFGGQKTGMSQIVFYDGYLVNDYVKEMISSRPGIKMDLKRMTVEVSDDAKKSGKKFKRRFLNEGLTFEFVFELNNYEDDAGKFEEKQRKFEELLKAFSIGDISLGSNKMIGYGRFRVDSISKSVFDFTNINDLLKYMLMETDSTEITQDILGREQETSKVRFKIKGKTVTPLLVKDETVRLSNESDGINIKDSRGNYIIPGSSIKGVIRSRAERLHRTFPCIGEEILTNIFGIESKKDDDGHISRLSCFDAVVKNPNKGIYNKIKIDYFTGGVMQGALMNDEVVMGDVEIECTFNTSGLNDYKREIGLLLLVLRDLCKEDLSIGSGYAVGRGYIKAETLELYDGEKLVLDFKSPNREVLKRFDSYISSLMNVG	soluble
MKAEKVRLRKQIIEHMNSLSEEQYTTLSEQIAFSLYAQKEWVEAKTIGITLSMENEVNTYPIIEKAWEEGKKVVVPKCNKGTRTMSFRQINNFDQLETVYMNLREPIPGLTEEVNMDEIDLQIVPGVAYTERGERIGYGGGYYDRYLVHYKGKTLSLAYDFQMVKHIPVEPFDKNIEKIITEKGTLLTNKLVLEHHHHHH	soluble
MKAERILGALYGQALGDAMGMPSELWPRTRVKAHFGWIDRFLPGPKENNAACYFNRAEFTDDTAMALCLADALLECEGNIDPEIIGRNILAWAERFDAFNKNVLGPTSKIALNAIRDGKPIAALENNGVTNGAAMRVSPLGCLLPPTNLTAFIAEVALASSPTHKSDLAVAGAVVVAWAVSRAVNGDTWQSIADSLPAVAHQAQTARITTFSASLSARLELALNIVRHADGVESASEQLYQIIGAGTSTIESVPCAIAMVELANTDPNRCAVLCANLGGDTDTIGAMATAICGALHGVSAINPQLKQTLDEVNQLDFARYAVALASYRQRREALLEHHHHHH	soluble
MKAREILEILNAELLTGEENLDMEFNAACGSDLMSDVMAYVKENVVLLTGLVNPQVIRTAEMMDIKLVVFIRGKRPEEKIIQMAKEKGIAIMTTNDPMFIACGKLYSAGITERGVWD	not soluble
MKCIETPKSAEEWRKVERTFAKKHILRCLGSLDGKHIRIKAPPHSGSLFFNYKHFFSFVLLVVVDADGRVIWVDVGSPGSNNDASIFSDSKLKTILDEEANLPPPTFWSRDFVVKPFVIADGIFKITPRMMTLYGGNGLNISQKVLNKKLSRARVKAEHAFGRLSAKFRILRREMECPYEKSVDIILALCHLHNYLIGKAEDVVNVPIETNMIPYKDGKEQRDYLCRYLNN	not soluble
MKCKVYTVVVPNVQSATLLPIIREKVKPDSIVYTDTFRSYDVLDVSEFSHFRINHSTHFAENHNYINGIGNFWNHAKRHLQKFNGIPKEHFELYLKECEWRFNNSEIKSQISILKQLVKGSLVLEHHHHHH	not soluble
MKDLSSIVAKFNTQGTITEIKPLGAGLINDTYKVNTQEADAPDYVLQRINHAIFQNVEMLQSNIAAVTGHIRKKLTEAGEADIDRKVLSFLATEEGKTYWFDGESYWRVMVFIPRAKTYETVNPEYSNYAGEAFGNFQAMLADIPETLGETIPDFHNMEFRLKQLRDAVAANAAGRVAEVQYYLDEIEKRADEMCKAERLFREGKLPKRVCHCDTKVNNMMFDEDGKVLCVIDLDTVMPSFIFSDYGDFLRTGANTGDEDDKDLNRVNFNMEIFKAFTKGYLKGAKSFLTPIEIENLPYAAALFPYMQCVRFLADYINGDTYYKIKYPEHNLVRTKAQFKLLQSVEEHTPEMVAFINECLVNGLEHHHHHH	soluble
MKDNLKEARRYLNNAKEMLSQKAKKEGKFYQDKKYIRLAGHAAYSGVLIALDNVLGNKDSGRKSVDWYKSELAKLDKKALTAFNGAYETLHLAMSYDGNIVANVSKSGIELADSIITWAETRTAAA	not soluble
MKDPLLNSLIYVSRYYGLANSPEALVNGLPLSDGKLTPFLLPRAAERAGLVAKENRAELEKISSLILPAILVLKGGDSCVLNSINMETREAEVTTLESGMVPISIPLEDLLEQYTGRYFLVKKQFRFDERSPEVLKTKEGHWFWSTLWQSKRIYRD	not soluble
MKDVTIYHNPRCSKSRETLALVEQQGITPQVVLYLETPPSVDKLKELLQQLGFSDARQLMRTKEDLYKTLNLDDRGLTQDQLLQAMADNPKLIERPIVVTQGKARIGRPPEQVLEILK	not soluble
MKEHQKLEHPAQVKTKSFEDAAFEMLSTVSPIKLPRDEIPFDSVREIVLGEIIKSKQRNSRSSANDRRNMDDLLDEAPSSSSSSSHVGESSSSNLDRGTMTDEGCTDIGGAPRPIAARLYGDCTRSSSTSTSSAAGPSCSSDVATVENSKKKPLNYREKRLAEIRAARLKKYRENAEIVEFKCEENCLAEVFTKYYLELLDDEAGPANLYYRVVESLDVYFRVKTWESNCPKLLCEFLCDHILKTCQQLNELHESKNMTDEWRARECQIQVLLTLHVYVVTDERRWLDEAINKLRMIYISVGAERLRTFVEEPVTDIYLELIGDGLATIYDELCINLPADLIQYDTGLFKMTETDDSLVVKRRNGAANRLEQMLNETSADLGVGGVERARRTSTEAAAPQRRSLKRRNIEDVPKELLSPARTTRTSRSDYKHFFVEDTPDEKYQKKTTKVEEIEMNEEEDGEIGAESTSKRKTVTIKEEIDEEVKQTPMAKLRASAKLNGKRCSKRLSDLVKLSEERTQVTKKARENLNKLLEKANTPIRSVTRPIRKSVLFGSAGSMSSSPATTKCARGTSSRTSLLNKFSEMEEKKKSPLAVDTSDGHIIHTPSSASESTTPVLRDRATRRRTTRFNDKNYQPNVLKQEMHDPEFDAMESSMASPSKRTTKNSSTAASASTTPVSKWTDRQLKRQLGLTREDLNRYREAMLTTGERNRNKNVKINWESAQVNRAGRVKGAGASEDGTPIFGIARRNVRTMICHVLLNDTNPDTSFDWNKVKFDDFCGKPRTRQFQSLIQKPEAYMESLKQKYIESRVSSAKRMRSNDGASTSSRPAKRRRSNASSPKKQTASSSASSTKSLKSPVKLEAFDDFGFESEADD	soluble
MKEQNESFVVDFVGGAVGHRFRSGEGRGQALPKAAGFTKGRTPKIVDATAGLGRDAFLLASLGAEVTLIERSPGMHAHLADGISRALEAGGAYAEAASRMTLLQGDSRQLLKELSPEVVVIDPMHPPRHNTALVKKEMRVLRELVGSDPDQVELMEVALAHATKRVVLKWPLRADPMPGIRKPSHQIIGKNTRYDVFMIFGNSLDQQELEHHHHHH	soluble
MKERIVGQSGELFCFGQMPVWKVENLPEVLLSGYSSEEGEWVCLNVLQGDVEVRAPDGAAEVWSAESGDCVFAPQQVFSVKPKTDDAEIRLSLYCAAADYFHKKYGMSATHSAVAAAQDTVPAGRALDMGCGQGRNALFLGLKGFDVTAADCNPAALANVAELAEAEGLNVRTLEYDLNAAALQGEFDYIVATVVLMFLMPQRVPDVIADMQAHTAAGGYNLIVSAMDTADFPCPMPFPFKFKEGELKDYYRDWELVEYKEELGAMHAKDENGNPIRFKFVTMLAKKPGLEHHHHHH	soluble
MKESLIEAKVMDYGKLKDIQKEILYYKLYVDALKKKGIKEKVDPPPTLPKSIVSSVLTGGIPRDGPLQIELVSNDVVKIKEYNTLVKIQSDSRLPLYAIVEYRDTDIRVYLAYRENPSIVGLDLGLRHLITIVAIKDTKPWKVRFFDEPKLMEKFANFLSENQGIIKLEEMKSNAKRIIYEAVSFIEDLEPKVVAMENLEYFETKTGKGLRALQNMLENEIRRRGIRYRKIDPYNTSRVCAKCGYKKGEILGSLFVCPACGYKADRDYNAAYNIALKCYYTCLEHHHHHH	not soluble
MKETCDLLAFGAHPDDVEIGMGGTIAKYVRRGYRIVICDLTQAELSSNGTVDERQREAAEAARRLGVSERFNLGLPDRGLYVEEEAIRQIAAVIRRYRPRLVFAPYWEDRHPDHGRCARLVEEAVFSAGIRRYGAGELGDAHRVRAVYYYMINAFCRPHFLIDISETINDKLDSLRAYESQFQKRPGSVDTPLTNGYIEMIESRERWFGQQIGAAYAEGFLTKTPIHLSNLFEEER	soluble
MKEVKKEYLTLDEVKILAQTPCEHDVLKRASLFSCLTGLRISDILNLRWEDFTLAPDQGYCIRIRTQKTSTEATLPISYEAYELCGEPSSGKVFKGLQRSMINYPLKKWIKQAGIMKHITFHCFRHSYAVIQISLGTDIYTVSKMLTHKNVSTTQIYADLEHHHHHH	not soluble
MKFAVIGGTGLIGSQVVKNLNAAGHEAVPHSQSTGIDVISGQGLDQAVAGADVIVNLTNSPTFDEASPAFFQTSMDNLLAAGRKAGVRHFVILSIVGVDQVPELDYYRAKALQEKILAAGPIPYSIVRATQFMEFIDAVLSWTADGDTVRLPATPIQPIAAKDVADAVAEVAAGAPLGGIRNVAGPEIFSLDELGRITLSHKSDGRTVVTDPTAGMFGAVKGDVLTDKDAHLAPTHYADWLS	not soluble
MKFDDSKPIYKQIVHYIHTEIVTGTYEAGDKLLSVRELATKLEVNPTTIQRAYAELEEAGIIFTVRGTGKYLTEDKRRIEQLENHIAKQLTENFISEMSKLGINKEKIIAWVKKVEEVEVNASGK	not soluble
